From publication PMC11848828

Assays:
[1] = biological target: Human 14-3-3ζ protein (human) (UniProt P63104); experiment: ITC
[2] = biological target: Human 14-3-3ζ protein (human) (UniProt P63104); experiment: real-time 1D 1H NMR

Chain of UniProt P63104 (P63104 whole entry): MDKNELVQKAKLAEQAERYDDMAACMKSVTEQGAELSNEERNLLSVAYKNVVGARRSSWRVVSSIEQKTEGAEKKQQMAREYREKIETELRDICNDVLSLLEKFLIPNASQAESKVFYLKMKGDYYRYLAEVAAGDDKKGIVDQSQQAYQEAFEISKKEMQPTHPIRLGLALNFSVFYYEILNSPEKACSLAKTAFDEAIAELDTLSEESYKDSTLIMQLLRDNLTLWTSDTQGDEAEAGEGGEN

Row | Substance | Kd [1] | dH [1] | other results
1 | PRLR P393V variant peptide | 28 µM | -3.08 kcal/mol | 
2 | PRLR W392L variant peptide | 13 µM |  | 

Further lines, with some results ahead:

Row | Kd [1] | dH [1] | Substance | other results
3 | 4 µM | -8.17 kcal/mol | PRLR W392A variant peptide | 
4 |  | -4.88 kcal/mol | PRLR W392Y variant peptide | Kd, two-sets-of-sites model, first set [1]: 0.4 µM; Kd, two-sets-of-sites model, second set [1]: 2.3 µM; dH of the cis proline isomer [1]: -4.64 kcal/mol; dH of the trans proline isomer [1]: -5.4 kcal/mol
5 |  | -5.62 kcal/mol | PRLR WT peptide (21-residue phosphorylated fragment of the human prolactin receptor intracellular domain, pThr391) | concentration of the cis isomer bound instantly (t0) [2]: 101 µM
